Source: patent US20220112288A1 (published 2022)
Where a chain is given by its changes, count along the chain named.

Key:
[1] = molecular target: T1, Recombinant human CD4 (R&D Systems, Cat. 10327-CD) (human, UniProt P01730 26-390, limits assumed); test: BLI (Octet Red384), non-clonal supernatant on AMC sensor, 100 nM human CD4
T1 construct: Bought soluble recombinant protein used as analyte at 100 nM; also called huCD4

[2] = molecular target: T1, Recombinant human CD4 (R&D Systems, …); test: BLI (Octet Red384), non-clonal supernatant on AMC sensor, 100 nM human CD4, 1:1 local fit;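 note: hybridoma antibodies captured from supernatant, single CD4 concentration as analyte, association and dissociation phases fitted together, giving single-point kinetic estimates per supernatant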
[3] = molecular target: T2, Recombinant human CD4 (R&D Systems, Cat. 10327-CD) (human, UniProt P01730 26-390, limits assumed); test: BLI Octet, non-clonal supernatant on AMC sensor, 100 nM human CD4;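 note: hybridoma supernatants diluted 1:3, antibodies captured on AMC biosensors, association and dissociation with CD4 followed, curves smoothed and fit locally with 1:1 binding model for single-point kinetics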
T2 construct: Bought reagent; also called huCD4

[4] = molecular target: T2, Recombinant human CD4 (R&D Systems, …); test: BLI Octet, non-clonal supernatant on AMC sensor, 100 nM human CD4, 1:1 local fit;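 note: Single-concentration kinetics per supernatant, with the 1:1 model fitted across both the association and dissociation phases of the sensorgram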
[5] = molecular target: T3, human CD4 on human PBMCs (human, UniProt P01730 26-458); test: FACS, clonal hybridoma supernatant on human PBMCs
T3 construct: whole, on cells; the CD4-positive gate was set with the control antibodies OKT4 and RPA-T4; also called hCD4

B1: 75110_01L08A (antibody, V domains shown)
VH: QVQLQESGPGLVKPSETLSLTCTVSGGSISHYYWSWIRQPPGKGLEWIGYIHYSGTTNYNPSLKSRVTISVDTSKNQLSLKLRSVTAADTAVYYCARDQGFSSGGMDVWGQGTTVTVSS
VL: not shown
notes: Non-clonal AlivaMab Mouse Kappa hybridoma supernatant, captured by anti-mouse IgG Fc (human V regions, mouse Fc)
B1 showed a Response [1] of 0.09, a Kd [2] of 4.1 nM and a koff [2] of 0.00037 s⁻¹. It also gave a kon [2] of 91000 M⁻¹ s⁻¹.

B2: 75110_02I18A (antibody, V domains shown)
VH: EVQVVESGGGLVQPGGSLRLSCAASGFTFSSYDMHWVRQATGKGLEWVSTIGTAGDTYYPGSVKGRFTISRENAKNSLYLQMNSLRAGDTAVYYCARGGYYYYGMDVWGQGTTVTVSS
VL: EIVLTQSPGTLSLSPGERATLSCRASQSVSSSYLAWYQQKPGQSPRLLIHGASSRATGIPDRVSGSGSGTDFTLTISRLEPEDFAVYYCQQYGSSPFTFGPGTKVDIK
notes: as for B1
With B2 the Response [1] was 0.16, the Kd [2] was 9 nM and the koff [2] was 0.0033 s⁻¹. The kon [2] was 370000 M⁻¹ s⁻¹.

B3: 75110_05F19A (antibody, V domains shown)
VH: B2 VH with V4L, S31N, M34V, A40P, Y101D, M105L
VL: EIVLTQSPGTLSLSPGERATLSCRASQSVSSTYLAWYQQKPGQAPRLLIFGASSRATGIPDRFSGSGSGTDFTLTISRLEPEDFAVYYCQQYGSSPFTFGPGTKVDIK
notes: as for B1
Binder B3 has a Response [1] of 0.18, a Kd [2] of 0.032 nM and a koff [2] of 4.4e-06 s⁻¹. For the same binder, the kon [2] was 140000 M⁻¹ s⁻¹.

B4: 75110_08K12A (antibody, V domains shown)
VH: B2 VH with V4L, K75E, V92L, G99D
VL: B2 VL with S32T, S44A, H50Y, S54N, V63F, Y92F, S94T
notes: as for B1
Binder B4 has a Response [1] of 0.11, a Kd [2] of 4.5 nM and a koff [2] of 0.0031 s⁻¹. It also gave a kon [2] of 700000 M⁻¹ s⁻¹.

B5: 75110_03I08A (antibody, V domains shown)
VH: QVQLQESGPGLVKPSETLSLTCTVSGGSISSYYWSWIRQPPGKGLEWIGYIYYSGSTNYNPSLKSRVTISVDTSKNQFSLKLSSVTAADTAVYYCAREGEQWFYGLDVWGQGTTVTVSS
VL: EIVLTQSPGTLSLSPGERATLSCRASQSVSSTYLAWYQQKPGQAPRLLIYGSSSRATGIPDRFSGSGSGTDFTLTISRLEPEDFAVYYCQQYGNSFPITFGQGTRLEIK
notes: as for B1
In the case of B5, the Response [1] is reported as 0.07, the Kd [2] is reported as under 0.001 nM and the koff [2] is reported as under 1e-07 s⁻¹. The kon [2] was 37000 M⁻¹ s⁻¹.

B6: 75110_04G02A (antibody, V domains shown)
VH: not shown
VL: DIVMTQSPDSLAVSLGERATINCKSSQSVLYSSNNKNYLAWYQQKPGQPPKLLFYWASARESGVPDRFSGSGSGTDFTLTISSLQAEDVALYYCQQYFGSFPTFGQGTKLEIK
notes: as for B1
Binder B6 has a Response [1] of 0.21, a Kd [2] of 0.76 nM and a koff [2] of 0.00017 s⁻¹. For the same binder, the kon [2] was 220000 M⁻¹ s⁻¹.

B7: 75110_12K21A (antibody, V domains shown)
VH: QVQLQQWGAGLLKPSETLSLTCAVSGGSFSGYYWSWIRQPPGKGLEWIGEINHSGSTNCNPSLKSRVTISVDTSNNQFSLKLSSVTAADTAVYYCARVLNYFDYWGQGTLVTVSS
VL: DIQMTQSPSSVSASVGDRVTITCRASPDIANWLAWYQQKPGKAPELLIYAASSLQSGVPSRFSGSGSGTDFTLTISSLQPEDFATYFCQQANSFPLTFGGGTKVESK
notes: Tested as non-clonal AlivaMab Mouse Kappa hybridoma supernatant, captured by anti-mouse IgG Fc sensor
For B7, the Response [3] was 0.26, the Kd [4] was 3 nM and the koff [4] was 0.0006 s⁻¹. It also gave a kon [4] of 200000 M⁻¹ s⁻¹.

B8: 75110_13C13A (antibody, V domains shown)
VH: B7 VH with N75K, V92M, Y101F
VL: B7 VL with S7T, D28G, A30S
notes: as for B7
With B8 the Response [3] was 0.19, the Kd [4] was 3.2 nM and the koff [4] was 0.00051 s⁻¹. It also gave a kon [4] of 160000 M⁻¹ s⁻¹.

B9: 75110_13P21A (antibody, V domains shown)
VH: B7 VH
VL: B7 VL
notes: as for B7
For B9, the Response [3] was 0.12, the Kd [4] was 2.04 nM and the koff [4] was 0.000315 s⁻¹. It also gave a kon [4] of 154000 M⁻¹ s⁻¹.

B10: 75110_13P22A (antibody, V domains shown)
VH: B7 VH with V24A, S25Y, P40S, H53Q, S56N, C59Y, V71A, N75K, Y101W, T109I
VL: DIQMTQSPSSVSASVGDRVTITCRASQGISDWLAWYQQKSGKAPDLLIFAASSLQSGVPSRFSGSGSGTDFTLTISSLQPEDFATYYCQQANSFPYTFGQGTKLEIK
notes: as for B7
B10 was tested, and the Response [3] was 0.24, the Kd [4] was 0.68 nM and the koff [4] was 0.00013 s⁻¹. It also gave a kon [4] of 190000 M⁻¹ s⁻¹.

B11: 75110_14H13A (antibody, V domains shown)
VH: B2 VH with V4L, S31N, E72K, N83I, Y100D
VL: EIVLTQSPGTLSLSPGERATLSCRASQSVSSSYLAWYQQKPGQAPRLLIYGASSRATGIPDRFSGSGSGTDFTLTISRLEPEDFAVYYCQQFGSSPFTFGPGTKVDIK
notes: Tested as clonal hybridoma supernatant from AlivaMab Mouse Kappa mice: human variable regions, human kappa, mouse Fc
In the case of B11, the “% CD4 Stain” value [5] is reported as 35.3% and the “gMFI of CD4+” value [5] is reported as 160000 gMFI.

B12: 75110_10O16A (antibody, V domains shown)
VH: B2 VH with V4L, S31N, Y32S, Y100L
VL: B2 VL with I2N, S44A, H50Y, V63F, Q90H, Y92F
notes: Tested as clonal hybridoma supernatant from AlivaMab Mouse Kappa mice: human variable regions, human kappa, mouse Fc (detected with anti-mouse Fc gamma); also called 75110_10016A
B12 was tested, and the “% CD4 Stain” value [5] was 37.2% and the “gMFI of CD4+” value [5] was 133000 gMFI.
